Measurements from article PMC10462243 (Research Square, 2023).

B1: Plk4 CPB(581–808), purified (domain or fragment, UniProt O00444 581-808, looked up)
chain: GYQNRTLRSITSPLVAHRLKPIRQKTKKAVVSILDSEEVCVELVKEYASQEYVKEVLQISSDGNTITIYYPNGGRGFPLADRPPSPTDNISRYSFDNLPEKYWRKYQYASRFVQLVRSKSPKITYFTRYAKCILMENSPGADFEVWFYDGVKIHKTEDFIQVIEKTGKSYTLKSESEVNSLKEEIKMYMDHANEGHRICLALESIISEEERKTRSAPFFPIIIGRKPG
notes: Plk4 cryptic polo-box, residues 581–808; Two copies for each Vpr•VprBP in the SEC complex; The construct has a TEV site
B2: Vpr (insect cells, co-expressed with VprBP WD40-AR) (natural protein)
chain: MEQAPEDQGPQREPYNEWTLELLEELKSEAVRHFPRIWLHNLGQHIYETYGDTWAGVEAIIRILQQLLFIHFRIGCRHSRIGVTRQRRARNGASRS
notes: HIV-1 Vpr ORF, expressed on its own from a p10 promoter in the dual construct; also called 11-kDa Vpr; source: Tni-FNL insect cells, co-expressed with His-MBP-TEV-VprBP, purified (HisTrap, SEC)

Columns and labels:
Experiment in all cases: SEC; purified Vpr, VprBP(1057–1507), Plk4 CPB(581–808) and DDB1; HisTrap eluate of VprBP and Vpr digested with TEV, mixed with Plk4 CPB; SEC in 20 mM Tris-HCl pH 7.5, 100 mM NaCl, 10% glycerol; stoichiometry estimated from Coomassie-stained protein intensity
[1] = target: the molecule itself
[2] = target: T1, Vpr•VprBP WD40-AR complex ( | HIV-1 (pNL4–3), UniProt Q9Y4B6;P12520); conditions: both partners purified
T1 construct: VprBP (DCAF1) WD40 domain and acidic region; HIV-1 Vpr ORF; Chains as m38 and m37, formed by co-expression before Plk4 CPB was added; also called VprBP (WD40-AR)•Vpr complex; source: Tni-FNL insect cells, co-expressed, purified (HisTrap, TEV); not shown: His, N-terminal, cleaved; MBP, N-terminal, cleaved; copies: 1 + 1
T1 sequence (Q9Y4B6 1057-1507, one chain of several): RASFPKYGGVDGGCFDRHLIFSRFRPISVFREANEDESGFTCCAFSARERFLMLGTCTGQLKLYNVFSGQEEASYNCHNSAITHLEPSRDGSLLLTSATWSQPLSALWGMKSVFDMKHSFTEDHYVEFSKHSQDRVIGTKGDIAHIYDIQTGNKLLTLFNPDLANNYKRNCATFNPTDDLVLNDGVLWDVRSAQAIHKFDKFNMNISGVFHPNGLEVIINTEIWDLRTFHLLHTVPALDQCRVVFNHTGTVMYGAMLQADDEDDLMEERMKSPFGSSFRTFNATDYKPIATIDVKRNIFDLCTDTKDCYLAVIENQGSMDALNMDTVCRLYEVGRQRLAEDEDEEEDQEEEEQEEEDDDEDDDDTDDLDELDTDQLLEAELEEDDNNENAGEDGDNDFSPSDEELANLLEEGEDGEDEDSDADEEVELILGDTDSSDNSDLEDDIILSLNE

[3] = target: B1; conditions: both partners purified

Binder	binding result [1]	stoichiometry N [2]	binding result [3]
B1	binds	~2	–
B2	–	–	binds
